Values quoted from earlier work, collected in publication PMC8625536.

Target: Glu89 (UniProt position 105, IDALNENKVLV)
Settings: Native folded protein; EF loop closed-to-open (Tanford) transition

For “beta-lactoglobulin (called BBL in the article) (Bos taurus)”, the pKa is given as ~7.3.
